T1: human NKG2D-Fc (human, UniProt P26718 78-216, limits assumed)
T1 construct: not shown: Fc part
T1 sequence (looked up): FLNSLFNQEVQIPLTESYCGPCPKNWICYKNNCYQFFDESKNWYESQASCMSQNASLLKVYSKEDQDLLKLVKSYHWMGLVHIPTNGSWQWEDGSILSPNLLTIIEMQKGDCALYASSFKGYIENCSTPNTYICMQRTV

B1: biotinylated human NKG2D (receptor, UniProt P26718 78-216, looked up)
chain: T1 sequence (looked up)
modifications: biotinylated (site not stated)
notes: also called recombinant biotinylated NKG2D
B2: WT α1-α2 soluble MICA protein (ligand, UniProt Q29983 24-299, looked up)
chain: EPHSLRYNLTVLSWDGSVQSGFLTEVHLDGQPFLRCDRQKCRAKPQGQWAEDVLGNKTWDRETRDLTGNGKDLRMTLAHIKDQKEGLHSLQEIRVCEIHEDNSTRSSQHFYYDGELFLSQNLETKEWTMPQSSRAQTLAMNVRNFLKEDAMKTKTHYHAMHADCLQELRRYLKSGVVLRRTVPPMVNVTRSEASEGNITVTCRASGFYPWNITLSWRQDGVSLSHDTQQWGDVLPDGNGTYQTWVATRICQGEEQRFTCYMEHSGNHSTHPVPSGK
notes: also called WT MICA; WT NKG2DL

Tests used:
[1] = molecular target: B2; assay: biolayer interferometry (Octet), surface-coated biotinylated human NKG2D, 100 nM protein
[2] = molecular target: B2; assay: biolayer interferometry (Octet), Kd = kOFF/kON
human NKG2D-Fc = molecular target: T1, human NKG2D-Fc; assay: competition ELISA: inhibits 2 nM human NKG2D-Fc binding to plate-coated WT sMICA
Text: Using a competitive binding ELISA, we determined the relative NKG2D binding affinities of the 4 modified α1-α2 variants.

For B1, the koff [1] was 0.0018 s⁻¹, the kon [1] was 130000 M⁻¹ s⁻¹ and the Kd [2] was 13.8 nM.

With B2 the IC50 (human NKG2D-Fc) was 19.4 nM.

Source: patent US20160304578A1 (XYPHOS BIOSCIENCES, published 2016)
